{"source": "patent US20100092465A1", "about": "“TREATMENT OF GRAFT-VERSUS-HOST DISEASE” (priority 2006, published 2010)", "key": {"[1]": {"biological_target": "T1, muIL-27 (Mus musculus, UniProt O35228+Q8K3I6)", "T1 sequence (O35228 19-228)": "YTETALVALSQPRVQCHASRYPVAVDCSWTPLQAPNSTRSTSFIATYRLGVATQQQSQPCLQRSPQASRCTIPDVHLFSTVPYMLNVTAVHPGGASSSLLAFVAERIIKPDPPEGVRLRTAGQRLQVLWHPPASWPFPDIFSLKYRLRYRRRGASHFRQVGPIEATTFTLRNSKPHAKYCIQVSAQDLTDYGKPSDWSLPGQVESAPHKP", "T1 sequence (Q8K3I6 29-234)": "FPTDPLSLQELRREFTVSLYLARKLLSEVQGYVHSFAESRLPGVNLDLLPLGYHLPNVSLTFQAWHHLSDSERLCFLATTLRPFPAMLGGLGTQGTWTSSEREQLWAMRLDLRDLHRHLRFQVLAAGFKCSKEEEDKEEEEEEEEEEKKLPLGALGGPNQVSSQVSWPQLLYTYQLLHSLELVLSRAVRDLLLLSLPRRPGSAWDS", "assay": "Phospho-STAT3 neutralization assay, mouse spleens, muIL-27", "assay_type": "cell-based", "conditions": "ligand muIL-27 at EC90", "source_text": "Whole mouse spleens were harvested from C57 B1/6 mice and washed two times with 1×PBS before being plated out at 2×10^5 cells/well in assay media (RPMI 1640 plus 10% fetal bovine serum) in 96-well, round-bottom tissue culture plates. Total human PBMC (peripheral blood mononuclear cells) were thawed from a frozen vial collected from a leukapherisis donation and washed two times with 1×PBS before being plated out at 10^6 cells/well in assay media in 96-well, round-bottom tissue culture plates. […] Following pre-incubation, treatments were added to the plates containing the cells and incubated together at 37° C. for 15 minutes.\nFollowing incubation, cells were washed with ice-cold wash buffer (BIO-PLEX Cell Lysis Kit, BIO-RAD Laboratories, Hercules, Calif.) and put on ice to stop the reaction according to manufacturer's instructions. […]\nCapture beads (BIO-PLEX Phospho-Stat3 Assay, BIO-RAD Laboratories) were combined with 50 μL of 1:1 diluted lysates and added to a 96-well filter plate according to manufacture's instructions (BIO-PLEX Phosphoprotein Detection Kit, BIO-RAD Laboratories). […] After the final wash, beads were resuspended in 125 μL/well of bead suspension buffer, shaken for 30 seconds, and read on an array reader (BIO-PLEX, BIO-RAD Laboratories) according to the manufacture's instructions. Data were analyzed using analytical softward (BIO-PLEX MANAGER 3.0, BIO-RAD Laboratories). […]"}, "[2]": {"assay": "Pharmacokinetics of soluble receptors in female C57B1/6 mice", "assay_type": "in vivo, mouse", "conditions": "for terminal / circulatory half-life, comparison in words: human Fc5 fusion versus mouse Fc1 fusion", "description": "Studies were performed to evaluate the pharmacokinetics of the mouse (IL-27RAm(mFc1)) and human (IL-27RA-Fc5) soluble receptors in female C57B1/6 mice.\nSerum was generated from each sample and analyzed by a qualified enzyme-linked immunosorbant assay (ELISA). The resulting mean serum concentration versus time profiles were then subjected to noncompartmental pharmacokinetic analyses. The following pharmacokinetic parameters were calculated: C0 and Cmax (extrapolated concentration at time zero and maximum serum concentration, respectively), Tmax (time to achieve maximum concentration), t1/2 λz (terminal half-life), AUC0-t (area under the concentration versus time curve from time zero to the last measurable time point), AUCINF (area under the concentration versus time curve extrapolated to infinity), Cl or Cl/F (clearance or clearance divided by bioavailable fraction, respectively), VSS or VZ/F (steady state volume of distribution or volume of distribution divided by the bioavailable fraction, respectively), and F (bioavailable fraction)."}, "[3]": {"test_system": "serum IgG1, IgG2a, IgE and cytokines", "assay": "Serum immunoglobulin and cytokine levels in acute GVHD model", "assay_type": "in vivo, mouse", "conditions": "serum level", "description": "Efficacy of IL-27 antagonists was assayed in a mouse model of acute graft-vs-host disease (Durie et al., J. Clin. Invest. 94:1333-1338, 1994). Parental mice (C57BL/6; n=12) were euthanized, and their spleens were collected. The pooled spleens were smashed using two glass slides to dissociate splenic cells. Lysis buffer was added to the splenocyte suspension to remove red blood cells. The cells were washed in RPMI 1640 (10% FBS) medium and resuspended in an appropriate amount of PBS to make a cell concentration of 300 million cells/ml. Protein treatments were administered by intraperitoneal injection every other day beginning on day-1 and continuing until day 15. Dexamethasone (DEX) was administered by injection daily on days 0 through 6. On day 0, 75 million donor splenic lymphocytes from B6 mice (250 .micro.l per injection) were injected intravenously into recipient mice (C57BL/6×DBA/2 F1 (BDF1); n=10 per group) mice. Mice were monitored 3 times a week for changes in body weight and any signs of moribundity. Mice that lost >20% of their initial body weight were euthanized. Otherwise, mice were sacrificed 18 days after the cell transfer. Spleens were collected, and a CTL-specific lysis assay using P815 cells was performed as a quantitative measurement of acute GVHD. Furthermore, spleens were stained for T- and B-cell markers, including MHC class I markers (H2^b and H2^d) to look at donor/recipient cell ratio (acute GVHD spleen cells are mostly donor cells). Sera were collected to measure serum level of IgG1, IgG2a, and IgE by ELISA, and cytokine and chemokine levels using a commercially available kit (Luminex Corporation, Austin, Tex.)."}}}
{"substance": "human IL-27RA-Fc5: human IL27RA extracellular domain (amino acids 1 to 512 of SEQ ID NO:5) fused to Fc5, effector minus human gamma1 Fc; SEQ ID NO:3", "values": [{"measurement": "IC50", "setting": "[1]", "result": 0.14, "unit": "nM"}, {"measurement": "AUC0-120", "setting": "[2]; IP, 100 μg", "result": 1310, "unit": "µg·h/mL"}, {"measurement": "AUCINF", "setting": "[2]; IP, 100 μg", "result": 1380, "unit": "µg·h/mL"}, {"measurement": "Cl/F", "setting": "[2]; IP, 100 μg", "result": 0.0725, "unit": "mL/h"}, {"measurement": "Tmax", "setting": "[2]; IP, 100 μg", "result": 3, "unit": "h"}, {"measurement": "t1/2 λz", "setting": "[2]; IP, 100 μg", "result": 28.3, "unit": "h"}, {"measurement": "Cmax", "setting": "[2]; IP, 100 μg, serum", "result": 35200, "unit": "ng/mL"}, {"measurement": "AUC0-120", "setting": "[2]; IV, 100 μg", "result": 1400, "unit": "µg·h/mL"}, {"measurement": "AUCINF", "setting": "[2]; IV, 100 μg", "result": 1510, "unit": "µg·h/mL"}, {"measurement": "Cl", "setting": "[2]; IV, 100 μg", "result": 0.0664, "unit": "mL/h"}, {"measurement": "Vss", "setting": "[2]; IV, 100 μg", "result": 2.54, "unit": "mL"}, {"measurement": "t1/2 λz", "setting": "[2]; IV, 100 μg", "result": 34.9, "unit": "h"}, {"measurement": "Co", "setting": "[2]; IV, 100 μg, serum", "result": 122, "unit": "µg/mL"}, {"measurement": "AUC0-120", "setting": "[2]; SC, 100 μg", "result": 1130, "unit": "µg·h/mL"}, {"measurement": "AUCINF", "setting": "[2]; SC, 100 μg", "result": 1210, "unit": "µg·h/mL"}, {"measurement": "Cl/F", "setting": "[2]; SC, 100 μg", "result": 0.0828, "unit": "mL/h"}, {"measurement": "Tmax", "setting": "[2]; SC, 100 μg", "result": 6, "unit": "h"}, {"measurement": "t1/2 λz", "setting": "[2]; SC, 100 μg", "result": 29.3, "unit": "h"}, {"measurement": "Cmax", "setting": "[2]; SC, 100 μg, serum", "result": 21000, "unit": "ng/mL"}, {"measurement": "terminal / circulatory half-life, comparison in words", "setting": "[2]; listed as fusion protein comprising an Fc fragment that had been engineered to remove effe", "result": "markedly improved circulatory half-life"}, {"measurement": "terminal / circulatory half-life, comparison in words", "setting": "[2]; listed as human Fc5 fusion protein", "result": "much longer terminal half-life"}, {"measurement": "IL-2", "setting": "[3]", "result": "↑↑↑"}, {"measurement": "IL-5", "setting": "[3]", "result": "↑↑"}, {"measurement": "IL-6", "setting": "[3]", "result": "↓↓↓"}, {"measurement": "IgE", "setting": "[3]", "result": "↑"}, {"measurement": "IgG1", "setting": "[3]", "result": "↑↑"}, {"measurement": "IgG2A", "setting": "[3]", "result": "↑↑"}]}
